Test results taken from patent US6570069B1, “Nucleic acids encoding plant inhibitors of apoptosis and transgenic cells and plants expressing them” (priority 2000, dated 2003).

T1: pro-caspase-9 (Homo sapiens, UniProt P55211)
T1 construct: host or cells: cell-free in vitro transcription/translation
T1 sequence (P55211 1-416): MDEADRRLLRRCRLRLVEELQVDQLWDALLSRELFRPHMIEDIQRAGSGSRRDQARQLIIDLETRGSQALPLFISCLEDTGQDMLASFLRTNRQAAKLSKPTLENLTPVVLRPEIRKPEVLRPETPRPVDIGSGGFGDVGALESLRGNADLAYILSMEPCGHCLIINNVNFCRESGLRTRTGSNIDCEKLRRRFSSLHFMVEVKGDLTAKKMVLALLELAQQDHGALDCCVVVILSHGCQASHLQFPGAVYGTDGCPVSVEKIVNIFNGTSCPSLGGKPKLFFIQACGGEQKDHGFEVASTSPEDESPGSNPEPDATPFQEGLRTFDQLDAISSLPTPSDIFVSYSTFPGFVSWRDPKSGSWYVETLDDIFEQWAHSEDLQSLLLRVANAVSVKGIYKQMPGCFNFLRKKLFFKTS

T2: caspase-3 (Homo sapiens, UniProt P42574)
T2 construct: His6 (C); made in house
T2 sequence (P42574 29-175 limits assumed): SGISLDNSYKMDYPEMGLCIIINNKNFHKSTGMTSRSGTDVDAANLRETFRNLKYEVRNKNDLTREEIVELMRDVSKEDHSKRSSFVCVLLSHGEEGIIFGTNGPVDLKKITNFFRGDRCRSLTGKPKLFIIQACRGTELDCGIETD
T2 sequence (P42574 176-277 limits assumed): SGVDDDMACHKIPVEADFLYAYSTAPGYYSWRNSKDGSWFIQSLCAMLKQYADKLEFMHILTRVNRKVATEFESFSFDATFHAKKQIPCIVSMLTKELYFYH


What was measured:
[1] = system: caspase-9-induced caspase activation and apoptosis in 293T cells; test: Caspase-9 overexpression in 293T cells: caspase activity and apoptosis; format: cell-based, human; settings: 24-36 hours after transfection
Experimental: HEK293 and 293T cells were maintained in DMEM (Irvine Scientific) supplemented with 10% fetal bovine serum, 1 mM L-glutamine and antibiotics. 293 cells (10^6) were co-transfected using Superfect with 0.1 μg Green Fluoresence Protein (GFP) marker plasmid pEGFP (Clontech), 0.25 ug of either pcDNA3-Bax or pcDNA3-Fas, and 1.5 μg of either pcDNA3myc-SfIAP or pcDNA3myc-CpIAP. Alternatively, cells were co-transfected with 0.35 μg pcDNA3-caspase-9-Flag and 2.1 μg of either SfIAP or CpIAP. […] In some cases, lysates were prepared from transfected cells, normalized for total protein content, and analyzed by SDS-PAGE/immunoblotting as described (Deveraux, Q., et al., (1997) supra; Deveraux, Q. L., et al. (1998) supra; Roy, N. et al. (1997) supra; Takahashi, R., et al., (1998), supra.).
To test this hypothesis, 293T cells were transfected with plasmids encoding pro-caspase-9 alone or in combination with SfIAP and CpIAP. Caspase activity and apoptosis were then assayed 24-36 hours later.

pro-caspase-9 = molecular target: T1, pro-caspase-9; test: GST pull-down binding of [35S]-pro-caspase-9; parameters: species or system mammalian; settings: GST fusion protein on glutathione-Sepharose
Experimental: [^35S]Pro-caspase-9 was in vitro transcribed and translated in the presence of [^35S]L-methionine using TNT kit from Promega. Protein were desalted and exchanged into buffer (20 mM HEPES pH 7.5, 10 mM KCl, 1.5 mM MgCl2, 1 mM EDTA and 1 mM DTT) with Bio-spin P-6 columns (Bio-Rad). […] After incubation at 4 ° C. for 1 hour, beads were removed by centrifugation and washed twice with 0.5 ml of 50 mM Tris (pH 7.5), 150 mM NaCl, 2 mm DTT before analysis by SDS-PAGE and autoradiography.

caspase-3 = molecular target: T2, caspase-3; test: Binding to recombinant purified caspase-3; parameters: species or system mammalian
Experimental: pGEX4T-1-SfIAP and pGEX4T-1 -CpIAP plasmids were introduced into E. coli strain BL21 (DE3) containing the plasmid pT-Trx. GST fusion proteins were obtained by induction with 0.05 mM IPTG at 25° C. for 8 hours, then purified using glutathione-Sepharose, essentially as described (Deveraux, Q., Welsh, K. & Reed, J. Methods of Enzymology in press). Caspases-3, and -7, containing C-terminal His6-tags, and caspase-8 containing an N-terminal His6-tag were purified as described previously (Stennicke, H. R. & Salvesen, G. S. (I1997) J. Biol. Chem. 272, 25719-25723; Stennicke, H., et al., (1998) J. Biol. Chem. 273, 27084-27090; Stennicke, H., et al., (1999) J. Biol. Chem. 274, 8359-8362). Caspase-9 lacking the CARD domain (ΔCARD-caspase-9) was constructed by truncating the cDNA and introducing a start codon substituting Val139. The resulting cDNA was subcloned into pET-23b and expressed in BL21 (DE3), yielding fully processed enzyme when cells were induced using 0.2 mM IPTG at OD600=0.6 for 4 hrs (Stennicke, H., Deveraux, Q., Humike, E., Reed, J., Dixit, V. & Salvesen, G. (1999) J. Biol. Chem. 274, 8359-8362). […] Concentrations of purified enzymes were determined from absorbance at 280 nm based on the molar absorption coefficients: caspase-3 (A280=26,000M−1 cm−1), caspase-7 (A280=24,500 M−1 cm−1), caspase-9 (A280=30,010M−1 cm−1). […]

Molecule	inhibition of caspase-9-induced apoptosis [1]	suppression of activation of downstream DEVD-cleaving caspases induced by overexpression of caspase-9 [1]	binding to pro-caspase-9 (autoradiography) (pro-caspase-9)	binding to caspase-3 (caspase-3)
SfIAP: cellular IAP cloned from Spodoptera frugiperda, protein of 377 amino acids (SEQ ID NO:3); GST-fusion when recombinant (protein, listed as Spodoptera frugiperda, GST fusion when recombinant; fall armyworm inhibitor of apoptosis protein (SfIAP)) MWSCSLPCWNTKKSGLQMDITKVASNGSSSTLTLFKSGSLEAKIRPLAPLMLPTPSYDSNAGSPSLSPSTPCSSSSFSIDKTDNHDTFGFSADTVDMRKEDERMKTFEKWPVSFLSGEQLARNGFYYLGRRDEARCAFCKVEIMRWVEGDDPAKDHQRWAPQCPFVRKLNGTAAADTGSSGQDECGARAAPSGTSPPRMAGPVHPRYASEAARLRSFKDWPRCMRQKPEELAEAGFFYTGQGDKTKCFYCDGGLKDWENHDVPWEQHARWFDRCAYVQLVKGREYVQKVISEACEVSASEAERDVAPARTAEPSPPAEAPENSVDDSKLCKICYAEERNVCFVPCGHVVACAKCALAADKCPMCRRTFQNAVRLYFS	inhibited caspase-9-induced apoptosis	markedly suppressed activation of downstream DEVD-cleaving caspases	associated with pro-caspase-9	neither bound
CpIAP: baculoviral (CpGV) inhibitor of apoptosis protein; complete ORF expressed myc-tagged or as GST-fusion (protein, left off: a dimerising Fc or GST, complete ORF expressed myc-tagged or as GST-fusion) MSDLRLEEVRLNTFEKWPVSFLSPETMAKNGFYYLGRSDEVRCAFCKVEIMRWKEGEDPAADHKKWAPQCPFVKGIDVCGSIVTTNNIQNTTTHDTIIGPAHPKYAHEAARVKSFHNWPRCMKQRPEQMADAGFFYTGYGDNTKCFYCDGGLKDWEPEDVPWEQHVRWFDRCAYVQLVKGRDYVQKVITEACVLPGENTTVSTAAPVSEPIPETKIEKEPQVEDSKLCKICYVEECIVCFVPCGHVVACAKCALSVDKCPMCRKIVTSVLKVYFS	inhibited caspase-9-induced apoptosis	markedly suppressed activation of downstream DEVD-cleaving caspases	associated with pro-caspase-9	neither bound
